Data taken from the supplement of paper PMC10567573.

B1: SPOPL (parent)
chain: AKREETKAMESQRAYRFVQGKDWG
B2: SNAP91 (parent)
chain: FATASAAVPVSTSKPSSDLLDLQP

Variants of: B1
Test: protein stability index of a GFP-peptide fusion (GPS, HEK-293T) (PSI 1-6); higher = more stable
Settings: c terminus: a fixed tail appended
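Further: lentivirally expressed fusions sorted by FACS into six bins by GFP to DsRed ratio, PSI derived from sequencing read proportions per bin multiplied by bin number.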

Protein stability index of substitutions, site by site:
R3: L 3.31 | Q 3.22 | A 3.49 | I 3.36 | Y 2.93 | S 3.34 | H 2.45 | V 3.24 | W 3.08 | G 3 | K 3.38 | M 3.32 | F 2.87 | T 2.88 | D 3.67 | N 2.91 | E 4.03 | C 2.26 | P 2.67
A1: S 2.81 | P 3.02 | H 3.61 | L 2.55 | Y 2.57 | M 2.77 | C 2.14 | K 2.83 | I 2.59 | V 2.29 | N 3.14 | W 2.61 | T 2.93 | D 3.38 | E 3.4 | Q 4.09 | F 3.61 | G 2.82 | R 2.49
E5: D 4.16 | L 3.15 | C 2.37 | H 2.28 | M 2.28 | I 2.26 | G 2.35 | F 2.4 | A 2.67 | K 2.79
K2: L 2.24 | F 2.81 | I 2.71 | Y 2.74 | D 3.39 | A 3.03 | G 2.6 | T 3.37 | E 3.61 | P 3.3 | V 2.98 | W 2.48 | Q 3.13 | R 2.92 | N 3.41 | S 2.85 | M 2.06 | C 1.75 | H 2.93
E4: V 2.42 | Y 2.02 | I 3.2 | L 2.26 | C 2.35 | K 2.77 | G 2.81 | F 2.21 | W 2.59 | R 2.44 | M 2.63 | P 2.96 | A 2.96 | Q 2.65 | T 3 | D 3.26 | H 2.5 | S 3.05 | N 2.54

Variants of: B2
Test: as above
Settings: c terminus: a fixed tail appended

Protein stability index: each site, then its substitutions
L20: Y 3.74 | G 4.12 | I 3.62 | D 4.48 | M 3.74 | S 4.29 | T 3.92 | K 4.33 | V 4.12 | N 3.61 | F 3.15 | R 4.09 | W 2.97 | A 4 | Q 4.14 | C 3.93 | H 3.9 | E 4.34 | P 4.36
S11: Y 2.17
P24: N 3.43 | V 3.41 | I 3.3 | M 3.52 | W 2.35 | S 3.64 | E 4.53 | Y 3.27 | F 2.8 | D 4.52 | A 3.94 | G 3.63 | Q 4.06 | T 3.88 | L 3.1 | R 3.71 | K 4.34 | C 3.56 | H 3.74
L19: R 3.98 | G 4.12 | P 4.39 | D 4.64 | F 3.7 | K 3.79 | W 2.5 | Y 3.56 | T 4.22 | M 3.81 | N 4.32 | A 4.02 | C 4.06 | S 4.35 | I 3.95 | V 3.95 | E 4.59 | Q 3.96 | H 4.26
D21: A 3.4 | S 3.25 | Q 3.57 | H 3.27 | N 3.59 | P 3.79 | I 2.93 | W 1.78 | V 3.23 | E 4.22 | M 3.23 | Y 2.67 | T 3.51 | C 2.91 | F 2.52 | L 2.48 | K 3.41 | G 4.09 | R 3.28
Q23: C 3.61 | M 3.29 | D 3.97 | R 3.34 | P 4.13 | F 2.7 | V 3.4 | H 3.35 | W 2.69 | K 3.42 | I 2.92 | T 3.96 | G 3.79 | E 4.46 | A 3.5 | S 4.18 | N 4.08 | Y 2.8 | L 3.38
K14: A 4.16 | S 4.01 | R 3.87 | W 2.03 | D 4.36 | G 3.97 | T 3.97 | L 3.64 | Q 4.61 | H 3.58 | P 4.15 | C 3.61 | I 3.5 | N 3.89 | Y 3.21 | E 4.45 | V 4.05 | F 2.6 | M 3.48
P15: I 3.52 | K 3.57 | W 2.19 | D 4.17 | T 3.74 | N 3.85 | S 3.73 | L 2.72 | R 2.9 | V 3.14 | G 3.97 | H 3.96 | A 3.28 | C 3.15 | Q 3.44 | F 2.54 | Y 2.99 | M 3.17 | E 4.89
L22: K 4.16 | E 4.76 | A 4.49 | F 3.59 | S 4.16 | H 4.07 | C 3.84 | G 3.93 | Q 4.3 | V 3.85 | P 4.4 | Y 3.99 | D 4.22 | I 3.71 | N 4.4 | M 3.87 | R 4.14 | T 4.3 | W 2.96
D18: E 3.98 | A 3.44 | L 2.77 | C 3.42 | R 2.84 | F 2.23 | K 2.98 | Q 3.19 | N 3.14 | V 3.17 | M 2.87 | S 2.99 | W 2.13 | G 3.42 | P 3.3 | Y 3.37 | T 3.17 | H 3.04 | I 3.37
S16: T 3.03 | R 3.3 | L 2.83 | G 3.57 | E 3.87 | F 2.99 | I 3.24 | D 4.24 | W 1.54 | Q 3.93 | A 4.02 | V 3.6 | K 3.43 | P 3.5 | C 3.36 | N 3.81 | Y 3.08 | M 3.43 | H 3.71
S17: M 3.56 | T 4.21 | K 3.47 | C 3.41 | V 3.47 | G 3.68 | F 2.51 | W 3.31 | D 4.22 | H 3.66 | E 4.13 | Q 3.72 | L 3.35 | P 3.79 | A 3.68 | Y 3.2 | I 2.88 | N 3.85 | R 3.25
S13: K 3.72 | F 3.22 | V 3.52 | E 3.67 | H 3.66 | Q 3.8 | R 3.94 | W 2.67 | A 3.82 | C 2.57 | G 3.95 | I 3.42 | M 3.67 | N 3.66 | Y 3.36 | L 3.09 | P 3.83 | D 3.62 | T 3.38
T12: Y 3.28 | I 3.51 | P 2.1 | G 3.91 | W 2.61 | E 4.44 | L 3.74 | V 3.73 | M 2.78 | K 3.61 | D 4.04 | S 4.49 | Q 3.97 | N 3.7 | A 4.36 | C 2.58 | H 4.3 | F 3.07 | R 3.13
